These sequences were tested on Escherichia coli TOP10 (assay: shrunken log2 fold change of peptide-encoding DNA abundance (4.5 h post-induction vs induction); higher = less antimicrobial activity (less host growth inhibition)). Conditions: time post-induction: 4.5 h; library: site-saturation at positions 5, 18, 19, 20.
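Also: peptides expressed intracellularly from a pBAD plasmid library in pooled LB shake-flask culture, induced with 0.3% L-arabinose, DNA abundance read by NGS, three biological replicates, DESeq2 with apeglm shrinkage.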

Sequence | shrunken log2 fold change
RRIRWRPPRLPRPRPRPRSVPRP | 0.247
RRIRVRPPRLPRPRPRPDVQPRP | -0.0199
RRIRLRPPRLPRPRPRPAPAPRP | 0.512
RRIRMRPPRLPRPRPRPEKWPRP | 1.56
RRIRQRPPRLPRPRPRPNDSPRP | -0.449
RRIRFRPPRLPRPRPRPGVWPRP | 0.507
RRIRTRPPRLPRPRPRPWGGPRP | 0.439
RRIRFRPPRLPRPRPRPKQEPRP | 0.246
RRIRHRPPRLPRPRPRPHTCPRP | -0.141
RRIRVRPPRLPRPRPRPDGEPRP | 0.487
RRIRDRPPRLPRPRPRPHSWPRP | 0.05
RRIRLRPPRLPRPRPRPDILPRP | -0.154
RRIRLRPPRLPRPRPRPLVVPRP | -0.113
RRIRKRPPRLPRPRPRPTRWPRP | 0.413
RRIRFRPPRLPRPRPRPSCDPRP | -0.314
RRIRERPPRLPRPRPRPTANPRP | -0.154
RRIRTRPPRLPRPRPRPDLDPRP | 0.145
RRIRGRPPRLPRPRPRPCGHPRP | 0.666
RRIRQRPPRLPRPRPRPDVSPRP | 0.0409
RRIRYRPPRLPRPRPRPQFQPRP | -0.718
RRIRNRPPRLPRPRPRPWKTPRP | 0.0489
RRIRERPPRLPRPRPRPDTNPRP | -0.183
RRIRYRPPRLPRPRPRPAWAPRP | 0.253
RRIRGRPPRLPRPRPRPAMAPRP | 0.913
RRIRKRPPRLPRPRPRPGPMPRP | 0.595

Sequence | shrunken log2 fold change
RRIRRRPPRLPRPRPRPQWSPRP | -0.00927
RRIRNRPPRLPRPRPRPDVIPRP | -0.135
RRIRPRPPRLPRPRPRPELSPRP | 0.46
RRIRCRPPRLPRPRPRPRDNPRP | 2.6
RRIRPRPPRLPRPRPRPYIWPRP | -0.267
RRIRKRPPRLPRPRPRPNCYPRP | -0.08
RRIRVRPPRLPRPRPRPKSKPRP | -0.117
RRIRNRPPRLPRPRPRPYCIPRP | -0.177
RRIRMRPPRLPRPRPRPGYYPRP | -0.0156
RRIRLRPPRLPRPRPRPNDTPRP | -0.302
RRIRFRPPRLPRPRPRPTRRPRP | 0.928
RRIRSRPPRLPRPRPRPAHYPRP | -0.131
RRIRERPPRLPRPRPRPHGCPRP | -0.00136
RRIRARPPRLPRPRPRPMVFPRP | 0.508
RRIRIRPPRLPRPRPRPFKSPRP | -0.023
RRIRARPPRLPRPRPRPVKYPRP | -0.166
RRIRWRPPRLPRPRPRPSTGPRP | 0.00923
RRIRNRPPRLPRPRPRPNMFPRP | -0.00614
RRIRPRPPRLPRPRPRPSMDPRP | -0.448
RRIRMRPPRLPRPRPRPAYWPRP | 0.509
RRIRVRPPRLPRPRPRPVTKPRP | 0.261
RRIRGRPPRLPRPRPRPHWFPRP | 0.156
RRIRIRPPRLPRPRPRPLWGPRP | 0.0579
RRIRLRPPRLPRPRPRPCCIPRP | -0.0547
RRIRARPPRLPRPRPRPYQMPRP | -0.396

Sequence | shrunken log2 fold change
RRIRFRPPRLPRPRPRPKMQPRP | -0.0373
RRIRIRPPRLPRPRPRPSNNPRP | -0.656
RRIRTRPPRLPRPRPRPPCGPRP | 0.4
RRIRQRPPRLPRPRPRPGPWPRP | 0.479
RRIRPRPPRLPRPRPRPIDQPRP | -0.116
RRIRLRPPRLPRPRPRPENRPRP | 0.097
RRIRCRPPRLPRPRPRPWRGPRP | 0.185
RRIRWRPPRLPRPRPRPSWTPRP | -0.0457
RRIRNRPPRLPRPRPRPCYIPRP | -0.33
RRIRPRPPRLPRPRPRPFWWPRP | 0.55
RRIRWRPPRLPRPRPRPTNFPRP | 0.0339
RRIRVRPPRLPRPRPRPHGTPRP | -0.408
RRIRGRPPRLPRPRPRPLLSPRP | 1.04
RRIRQRPPRLPRPRPRPEKPPRP | -0.129
RRIRMRPPRLPRPRPRPEHDPRP | 1.62
RRIRLRPPRLPRPRPRPRCNPRP | -0.534
RRIRYRPPRLPRPRPRPNAQPRP | -0.0122
RRIRMRPPRLPRPRPRPTMVPRP | 0.263
RRIRGRPPRLPRPRPRPMMCPRP | 0.0367
RRIRTRPPRLPRPRPRPYMTPRP | -0.375
RRIRFRPPRLPRPRPRPCHPPRP | 1.35
RRIRLRPPRLPRPRPRPWAQPRP | 0.249
RRIRGRPPRLPRPRPRPVFIPRP | 0.0618
RRIRFRPPRLPRPRPRPMVNPRP | -0.171
RRIRRRPPRLPRPRPRPWKHPRP | -0.167

Source: the supplement of paper PMC9112550, “Optimization of the antimicrobial peptide Bac7 by deep mutational scanning” (BMC Biology, 2022)
